Source: PMC7005713, “Revisiting the pH-gated conformational switch on the activities of HisKA-family histidine kinases” (Nature Communications, 2020)
Values belong to the binder of their own block, whether it stands above or below them.

B1: HK853, complete cytoplasmic portion (DHp and CA domains), wild type (domain or fragment, Thermotoga maritima)
chain: VENVTESKELERLKRIDRMKTEFIANISHELRTPLTAIKAYAETIYNSLGELDLSTLKEFLEVIIDQSNHLENLLNELLDFSRLERKSLQINREKVDLCDLVESAVNAIKEFASSHNVNVLFESNVPCPVEAYIDPTRIRQVLLNLLNNGVKYSKKDAPDKYVKVILDEKDGGVLIIVEDNGIGIPDHAKDRIFEQFYRVDSSLTYEVPGTGLGLAITKEIVELHGGRIWVESEVGKGSRFFVWIPKDRAGEDNRQDN
notes: Sensor histidine kinase HK853 of Thermotoga maritima, complete cytoplasmic (catalytic) portion with DHp and CA domains; source: E. coli BL21-CodonPlus(DE3)-RIL, purified (70 °C heat step, HisTrap HP, TEV digestion, Superdex 200)
B2: HK853 H260A, complete cytoplasmic portion (domain or fragment, Thermotoga maritima)
chain: VENVTESKELERLKRIDRMKTEFIANISAELRTPLTAIKAYAETIYNSLGELDLSTLKEFLEVIIDQSNHLENLLNELLDFSRLERKSLQINREKVDLCDLVESAVNAIKEFASSHNVNVLFESNVPCPVEAYIDPTRIRQVLLNLLNNGVKYSKKDAPDKYVKVILDEKDGGVLIIVEDNGIGIPDHAKDRIFEQFYRVDSSLTYEVPGTGLGLAITKEIVELHGGRIWVESEVGKGSRFFVWIPKDRAGEDNRQDN
notes: ADP was added for crystallisation; Same limits as m1; source: E. coli BL21-CodonPlus(DE3)-RIL, purified (70 °C heat step, HisTrap HP, TEV digestion, Superdex 200)

Legend:
[1] = target: the molecule itself; assay: crystal structure; HK853 (10 mg/ml) and RR468 (7.5 mg/ml) with 4 mM ADP, 30 mM NaF, 5 mM BeSO4, 7 mM MgCl2; sitting drops at 21 °C; 1.8 M (NH4)2SO4, 0.1 M sodium citrate; four structures at pH 5.5, 6.5, 7 and 7.5
[2] = target: the molecule itself; assay: crystal structure; HK853 H260A and RR468 D53A with 4 mM ADP; sitting drops at 21 °C; pH 7.5: 1.8 M (NH4)2SO4, 100 mM sodium citrate; pH 5.3: 1.2 M (NH4)2SO4, 100 mM Bis-Tris; two structures
[3] = target: B1; assay: crystal structure; HK853 (10 mg/ml) and RR468 (7.5 mg/ml) with 4 mM ADP, 30 mM NaF, 5 mM BeSO4, 7 mM MgCl2; sitting drops at 21 °C; 1.8 M (NH4)2SO4, 0.1 M sodium citrate; four structures at pH 5.5, 6.5, 7 and 7.5; details: both partners purified
[4] = target: B2; assay: crystal structure; HK853 H260A and RR468 D53A with 4 mM ADP; sitting drops at 21 °C; pH 7.5: 1.8 M (NH4)2SO4, 100 mM sodium citrate; pH 5.3: 1.2 M (NH4)2SO4, 100 mM Bis-Tris; two structures; details: both partners purified
[5] = target: B1; assay: crystal structure; HK853 wild type and RR468 D53A with 4 mM ADP; sitting drops at 21 °C; pH 7: 1.8 M (NH4)2SO4, 100 mM sodium citrate; pH 5.3: 1.2 M (NH4)2SO4, 100 mM Bis-Tris; two structures; details: both partners purified

Binder: B1
binding result [1]: binds

Binder: B2
binding result [2]: binds

binding result [3]: binds
B3: RR468 wild type, bound to the phosphomimetic BeF3- (natural protein, Thermotoga maritima)
chain: MSKKVLLVDDSAVLRKIVSFNLKKEGYEVIEAENGQIALEKLSEFTPDLIVLDIMMPVMDGFTVLKKLQEKEEWKRIPVIVLTAKGGEEDESLALSLGARKVMRKPFSPSQFIEEVKHLLNE
modifications: phosphomimetic BeF3- bound to the phosphoacceptor D53
notes: Response regulator RR468 of Thermotoga maritima; BeF3- was formed in the crystallisation mixture from 30 mM NaF, 5 mM BeSO4 and 7 mM MgCl2; source: E. coli BL21-CodonPlus(DE3)-RIL, purified (70 °C heat step, HisTrap HP, TEV digestion, Superdex 75)

binding result [4]: binds | binding result [5]: binds
B4: RR468 D53A (natural protein, Thermotoga maritima)
chain: MSKKVLLVDDSAVLRKIVSFNLKKEGYEVIEAENGQIALEKLSEFTPDLIVLAIMMPVMDGFTVLKKLQEKEEWKRIPVIVLTAKGGEEDESLALSLGARKVMRKPFSPSQFIEEVKHLLNE
notes: Response regulator RR468 of Thermotoga maritima cloned in pET22b, with the phosphoacceptor Asp53 changed to Ala; lacks a Histag; source: E. coli BL21-CodonPlus(DE3)-RIL, purified (70 °C heat step, Mono Q, Superdex 75)
